Test results taken from the supplement of paper PMC10266784.

B1: library; numbered along this chain (parent)
chain: MAAAAAAAAEQQSSNGPVKKSMREKAVERRSVNKEHNSNFKAGYIPIDEDRLHKTGLRGRKGNLAICVIILLFILAVINLIITLVIWAVIRIGPNGCDSMEFHESGLLRFKQVSDMGVIHPLYKSTVGGRRNENLVITGNNQPIVFQQGTTKLSVENNKTSITSDIGMQFFDPRTQNILFSTDYETHEFHLPSGVKSLNVQKASTERITSNATSDLNIKVDGRAIVRGNEGVFIMGKTIEFHMGGNMELKAENSIILNGSVMVSTTRLPSSSSGDQLGSGDWVRYKLCMCADGTLFKVQVTSQNMGCQISDNPCGNTH

Variants of: B1
Assay: SGCB cell-surface expression functional score (HA stain, bin4 vs bin1, normalised to synonymous) (log10 ratio); higher = more cell-surface SGCB (functional)
Procedure, shortened: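 Codon-saturation libraries of HA-tagged, YFP-fused human beta-sarcoglycan were lentivirally transduced at MOI <0.1 into HEK293 cells stably expressing alpha-, gamma- and delta-sarcoglycan. YFP-positive cells were sorted after 72 hours, grown 5–7 days, stained on ice with Alexa Fluor 647 anti-HA, fixed, sorted into four 5% intensity bins and amplicon-sequenced. The functional score is the log ratio of highest-bin to lowest-bin variant frequency, taken as the median over codons and duplicate transductions. Synonymous variants were scaled per section to mean 0, SD 0.5.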

| Variant | SGCB cell-surface expression functional score (log10) |
| --- | --- |
| MAAAAAAAAEQQSSNGPVKKSMREKAVERRSVNKEHNSNFKAGYIPIDEDRLHKTGLRGRKGNLAICVIILLFILAVINLIITLVIWAVIRIGPNGCDSMEFHESGLLRFKQVSDMGVIHPLYKSTVGGRRNENLVITGNNQPIVFQQGTTKLSVENNKTSITSDIGMQFFDPRTQNILFSTDYETHEFHLPSGVKSLNVQKASTERITSNATSDLNIKVDGRAIVRGNEGVFIMGKTIEFHMGGNMELKAENSIILNGSVMVSTTRLPSSSSGDQLGSGDWVRYKLCMCADGTLFKVQVTSQNMGCQISDNPCGNWH [T317W] | 0.32 |
| MAAAAAAAAEQQSSNGPVKKSMREKAVERRSVNKEHNSNFKAGYIPIDEDRLHKTGLRGRKGNLAICVIILLFILAVINLIITLVIWAVIRIGPNGCDSMEFHESGLLRFKQVSDMGVIHPLYKSTVGGRRNENLVITGNNQPIVFQQGTTKLSVENNKTSITSDIGMQFFDPRTQNILFSTDYETHEFHLPSGVKSLNVQKASTERITSNATSDLNIKVDGRAIVRGNEGVFIMGKTIEFHMGGNMELKAENSIILNGSVMVSTTRLPSSSSGDQLGSGDWVRYKLCMCADGTLFKVQVTSQNMGCQISDNPCGNYH [T317Y] | 0.51 |
| MAAAAAAAAEQQSSNGPVKKSMREKAVERRSVNKEHNSNFKAGYIPIDEDRLHKTGLRGRKGNLAICVIILLFILAVINLIITLVIWAVIRIGPNGCDSMEFHESGLLRFKQVSDMGVIHPLYKSTVGGRRNENLVITGNNQPIVFQQGTTKLSVENNKTSITSDIGMQFFDPRTQNILFSTDYETHEFHLPSGVKSLNVQKASTERITSNATSDLNIKVDGRAIVRGNEGVFIMGKTIEFHMGGNMELKAENSIILNGSVMVSTTRLPSSSSGDQLGSGDWVRYKLCMCADGTLFKVQVTSQNMGCQISDNPCGNVH [T317V] | -0.26 |
